# Data from IntAct's records for PubMed 21730963.
# B1: Serine/threonine-protein kinase SCH9 (Saccharomyces cerevisiae), P11792 (parent)
# chain: MMNFFTSKSSNQDTGFSSQHQHPNGQNNGNNNSSTAGNDNGYPCKLVSSGPCASSNNGALFTNFTLQTATPTTAISQDLYAMGTTGITSENALFQMKSMNNGISSVNNNNSNTPTIITTSQEETNAGNVHGDTGGNSLQNSEDDNFSSSSTTKCLLSSTSSLSINQREAAAAAYGPDTDIPRGKLEVTIIEARDLVTRSKDSQPYVVCTFESSEFISNGPESLGAINNNNNNNNNNQHNQNQHINNNNENTNPDAASQHHNNNSGWNGSQLPSIKEHLKKKPLYTHRSSSQLDQLNSCSSVTDPSKRSSNSSSGSSNGPKNDSSHPIWHHKTTFDVLGSHSELDISVYDAAHDHMFLGQVRLYPMIHNLAHASQHQWHSLKPRVIDEVVSGDILIKWTYKQTKKRHYGPQDFEVLRLLGKGTFGQVYQVKKKDTQRIYAMKVLSKKVIVKKNEIAHTIGERNILVTTASKSSPFIVGLKFSFQTPTDLYLVTDYMSGGELFWHLQKEGRFSEDRAKFYIAELVLALEHLHDNDIVYRDLKPENILLDANGNIALCDFGLSKADLKDRTNTFCGTTEYLAPELLLDETGYTKMVDFWSLGVLIFEMCCGWSPFFAENNQKMYQKIAFGKVKFPRDVLSQEGRSFVKGLLNRNPKHRLGAIDDGRELRAHPFFADIDWEALKQKKIPPPFKPHLVSETDTSNFDPEFTTASTSYMNKHQPMMTATPLSPAMQAKFAGFTFVDESAIDEHVNNNRKFLQNSYFMEPGSFIPGNPNLPPDEDVIDDDGDEDINDGFNQEKNMNNSHSQMDFDGDQHMDDEFVSGRFEI
# partner: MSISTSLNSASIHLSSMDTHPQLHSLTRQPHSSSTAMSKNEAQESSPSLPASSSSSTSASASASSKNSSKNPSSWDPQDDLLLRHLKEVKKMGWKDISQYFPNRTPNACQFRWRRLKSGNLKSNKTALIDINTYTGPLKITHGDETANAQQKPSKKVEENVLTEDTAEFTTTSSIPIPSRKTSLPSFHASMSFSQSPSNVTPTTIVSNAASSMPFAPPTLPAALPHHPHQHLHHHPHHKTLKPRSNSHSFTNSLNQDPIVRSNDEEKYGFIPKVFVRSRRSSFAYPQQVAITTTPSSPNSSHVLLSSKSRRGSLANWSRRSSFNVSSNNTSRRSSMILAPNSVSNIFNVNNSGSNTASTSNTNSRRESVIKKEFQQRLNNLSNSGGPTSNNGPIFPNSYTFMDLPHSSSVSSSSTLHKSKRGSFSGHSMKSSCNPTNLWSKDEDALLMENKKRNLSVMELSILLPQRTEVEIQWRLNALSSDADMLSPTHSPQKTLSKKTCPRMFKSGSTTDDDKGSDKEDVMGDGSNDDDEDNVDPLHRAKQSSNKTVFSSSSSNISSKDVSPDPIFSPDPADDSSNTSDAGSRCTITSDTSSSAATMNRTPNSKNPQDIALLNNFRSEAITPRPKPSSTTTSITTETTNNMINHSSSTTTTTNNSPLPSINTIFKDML
# B2: Serine/threonine-protein kinase SCH9 (Saccharomyces cerevisiae), P11792 (parent)
# chain: B1 chain
# partner: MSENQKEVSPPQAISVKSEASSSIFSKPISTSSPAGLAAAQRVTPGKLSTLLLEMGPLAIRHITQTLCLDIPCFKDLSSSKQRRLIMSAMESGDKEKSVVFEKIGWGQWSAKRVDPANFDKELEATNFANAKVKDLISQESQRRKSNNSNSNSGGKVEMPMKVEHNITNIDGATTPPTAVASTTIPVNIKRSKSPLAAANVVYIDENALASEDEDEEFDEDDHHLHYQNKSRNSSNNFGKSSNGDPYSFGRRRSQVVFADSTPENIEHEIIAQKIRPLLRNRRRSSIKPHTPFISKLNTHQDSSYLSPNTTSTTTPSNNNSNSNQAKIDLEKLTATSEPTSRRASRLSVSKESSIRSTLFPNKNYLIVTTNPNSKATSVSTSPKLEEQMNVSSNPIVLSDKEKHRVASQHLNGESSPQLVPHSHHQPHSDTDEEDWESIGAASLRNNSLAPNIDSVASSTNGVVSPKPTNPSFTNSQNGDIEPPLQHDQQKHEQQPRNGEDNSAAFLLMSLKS
# B3: Transcriptional regulatory protein DOT6 (Saccharomyces cerevisiae), P40059 (parent)
# chain: B1 partner
# partner: B1 chain
# B4: Transcriptional regulatory protein TOD6 (Saccharomyces cerevisiae), P34219 (parent)
# chain: MTLPKLSSVSVSSGHVSANSHGFSILSKHPHPNNLVHSHSLSHTNAKSHLPISSTSTKENSTNKEEAESLKKNNPSSWDPSDDIKLRHLKEIKNLGWKEIAHHFPNRTPNACQFRWRRLKSGNLKSNKTAVIDINKLFGVYATGDATPSAGTPSAEEAVKEEAVEDEDITAGSSAIEDSPPDFKPLVKPKYMDRKLITQRSTSTFSDHEPQHTKPRKLFVKPRSFSHSITTNTPNVKTAQQTNLSLYNTTSAKTNKAVNSNDYENIGLVPKIIIRSRRNSFIPSTQIPHSTTKTRKNSHSVISSRRSSFNMMHSRRSSFNSHAPTEPISRRASLVVSPYMSPRRLSTSQSVHYHPQHQYYLNPIASPNCKTDHANDKITHTRTFLDMQKFANKHPWSREDDEVLLNNTKDKQNHLSPLEISIVLPNNRSELEIQQRMDYLKRKGRVSGFHTNEGCKDEEEEDDIDPLHKENGINTPSQQSQNYGMLEAKHDNPKSSELSSMTSANDIRNEQDELPGINSIFKNIF
# partner: B1 chain
# B5: Serine/threonine-protein kinase SCH9 (Saccharomyces cerevisiae), P11792 (parent)
# chain: B1 chain
# partner: B4 chain
# Variants of: B1
# Conditions: with dot6_yeast DOT6, P40059
row,effect of a mutation on the interaction,Variant
1,increasing interaction,T6E

# Variants of: B2
# Conditions: with stb3_yeast STB3, Q12427
row,effect of a mutation on the interaction,Variant
1,increasing interaction,T6E

# Variants of: B3
# Conditions: with sch9_yeast SCH9, P11792
row,effect of a mutation on the interaction,Variant
1,decreasing interaction,T5A

# Variants of: B4
# Conditions: with sch9_yeast SCH9, P11792
row,effect of a mutation on the interaction,Variant
1,decreasing interaction,L6A

# Variants of: B5
# Conditions: with tod6_yeast TOD6, P34219
row,effect of a mutation on the interaction,Variant
1,increasing interaction,T6E
